Data as given in patent US20130040853A1, “Context Specific Genetic Screen Platform to Aid in Gene Discovery and Target Validation” (Dana-Farber Cancer Institute Inc., priority 2010, published 2013).

B1: MAP2K4 p.S251N: MAP2K4 somatic mutant identified in a melanoma (protein, UniProt P45985 2-399, looked up, variant S251N)
Dual specificity …: AAPSPSGGGGSGGGSGSGTPGPVGSPAPGHPAVSSMQGKRKALKLNFANPPFKSTARFTLNPNPTGVQNPHIERLRTHSIESSGKLKISPEQHWDFTAEDLKDLGEIGRGAYGSVNKMVHKPSGQIMAVKRIRSTVDEKEQKQLLMDLDVVMRSSDCPYIVQFYGALFREGDCWICMELMSTSFDKFYKYVYSVLDDVIPEEILGKITLATVKALNHLKENLKIIHRDIKPSNILLDRSGNIKLCDFGINGQLVDSIAKTRDAGCRPYMAPERIDPSASRQGYDVRSDVWSLGITLYELATGRFPYPKWNSVFDQLTQVVKGDPPQLSNSEEREFSPSFINFVNLCLTKDESKRPKYKELLKHPFILMYEERAVEVACYVCKILDQMPATPSSPMYVD
B2: MAP2K4 p.N2341: MAP2K4 somatic driver mutant, observed in ovarian serous carcinoma (protein, UniProt P45985 2-399, looked up, variant N234I)
Dual specificity …: AAPSPSGGGGSGGGSGSGTPGPVGSPAPGHPAVSSMQGKRKALKLNFANPPFKSTARFTLNPNPTGVQNPHIERLRTHSIESSGKLKISPEQHWDFTAEDLKDLGEIGRGAYGSVNKMVHKPSGQIMAVKRIRSTVDEKEQKQLLMDLDVVMRSSDCPYIVQFYGALFREGDCWICMELMSTSFDKFYKYVYSVLDDVIPEEILGKITLATVKALNHLKENLKIIHRDIKPSIILLDRSGNIKLCDFGISGQLVDSIAKTRDAGCRPYMAPERIDPSASRQGYDVRSDVWSLGITLYELATGRFPYPKWNSVFDQLTQVVKGDPPQLSNSEEREFSPSFINFVNLCLTKDESKRPKYKELLKHPFILMYEERAVEVACYVCKILDQMPATPSSPMYVD
B3: MAP2K4 p.A279T: MAP2K4 somatic driver mutant, observed in colorectal adenocarcinoma (protein, UniProt P45985 2-399, looked up, variant A279T)
Dual specificity …: AAPSPSGGGGSGGGSGSGTPGPVGSPAPGHPAVSSMQGKRKALKLNFANPPFKSTARFTLNPNPTGVQNPHIERLRTHSIESSGKLKISPEQHWDFTAEDLKDLGEIGRGAYGSVNKMVHKPSGQIMAVKRIRSTVDEKEQKQLLMDLDVVMRSSDCPYIVQFYGALFREGDCWICMELMSTSFDKFYKYVYSVLDDVIPEEILGKITLATVKALNHLKENLKIIHRDIKPSNILLDRSGNIKLCDFGISGQLVDSIAKTRDAGCRPYMAPERIDPSTSRQGYDVRSDVWSLGITLYELATGRFPYPKWNSVFDQLTQVVKGDPPQLSNSEEREFSPSFINFVNLCLTKDESKRPKYKELLKHPFILMYEERAVEVACYVCKILDQMPATPSSPMYVD
B4: MAP2K4 WT: wild type MAP2K4 kinase ORF expressed from lentiviral vector in HMEL cells (protein, UniProt P45985 1-399, looked up)
chain: MAAPSPSGGGGSGGGSGSGTPGPVGSPAPGHPAVSSMQGKRKALKLNFANPPFKSTARFTLNPNPTGVQNPHIERLRTHSIESSGKLKISPEQHWDFTAEDLKDLGEIGRGAYGSVNKMVHKPSGQIMAVKRIRSTVDEKEQKQLLMDLDVVMRSSDCPYIVQFYGALFREGDCWICMELMSTSFDKFYKYVYSVLDDVIPEEILGKITLATVKALNHLKENLKIIHRDIKPSNILLDRSGNIKLCDFGISGQLVDSIAKTRDAGCRPYMAPERIDPSASRQGYDVRSDVWSLGITLYELATGRFPYPKWNSVFDQLTQVVKGDPPQLSNSEEREFSPSFINFVNLCLTKDESKRPKYKELLKHPFILMYEERAVEVACYVCKILDQMPATPSSPMYVD
modifications: full-length
notes: wild type MAP2K4 kinase ORF expressed from lentiviral vector in HMEL cells
B5: JNK2 p.V13M: JNK2 somatic mutant, observed in colorectal adenocarcinoma (protein, UniProt P45984 1-424, looked up, variant V13M)
Mitogen-activated protein …: MSDSKCDSQFYSMQVADSTFTVLKRYQQLKPIGSGAQGIVCAAFDTVLGINVAVKKLSRPFQNQTHAKRAYRELVLLKCVNHKNIISLLNVFTPQKTLEEFQDVYLVMELMDANLCQVIHMELDHERMSYLLYQMLCGIKHLHSAGIIHRDLKPSNIVVKSDCTLKILDFGLARTACTNFMMTPYVVTRYYRAPEVILGMGYKENVDIWSVGCIMGELVKGCVIFQGTDHIDQWNKVIEQLGTPSAEFMKKLQPTVRNYVENRPKYPGIKFEELFPDWIFPSESERDKIKTSQARDLLSKMLVIDPDKRISVDEALRHPYITVWYDPAEAEAPPPQIYDAQLEEREHAIEEWKELIYKEVMDWEERSKNGVVKDQPSDAAVSSNATPSQSSSINDISSMSTEQTLASDTDSSLDASTGPLEGCR
B6: JNK2 p.K56N: JNK2 somatic mutant, observed in head & neck squamous cell (protein, UniProt P45984 1-424, looked up, variant K56N)
Mitogen-activated protein …: MSDSKCDSQFYSVQVADSTFTVLKRYQQLKPIGSGAQGIVCAAFDTVLGINVAVKNLSRPFQNQTHAKRAYRELVLLKCVNHKNIISLLNVFTPQKTLEEFQDVYLVMELMDANLCQVIHMELDHERMSYLLYQMLCGIKHLHSAGIIHRDLKPSNIVVKSDCTLKILDFGLARTACTNFMMTPYVVTRYYRAPEVILGMGYKENVDIWSVGCIMGELVKGCVIFQGTDHIDQWNKVIEQLGTPSAEFMKKLQPTVRNYVENRPKYPGIKFEELFPDWIFPSESERDKIKTSQARDLLSKMLVIDPDKRISVDEALRHPYITVWYDPAEAEAPPPQIYDAQLEEREHAIEEWKELIYKEVMDWEERSKNGVVKDQPSDAAVSSNATPSQSSSINDISSMSTEQTLASDTDSSLDASTGPLEGCR
B7: JNK1 WT: wild type MAPK8/JNK1 kinase ORF expressed in HMEL cells (protein, UniProt P45983 1-427, looked up)
Mitogen-activated protein …: MSRSKRDNNFYSVEIGDSTFTVLKRYQNLKPIGSGAQGIVCAAYDAILERNVAIKKLSRPFQNQTHAKRAYRELVLMKCVNHKNIIGLLNVFTPQKSLEEFQDVYIVMELMDANLCQVIQMELDHERMSYLLYQMLCGIKHLHSAGIIHRDLKPSNIVVKSDCTLKILDFGLARTAGTSFMMTPYVVTRYYRAPEVILGMGYKENVDLWSVGCIMGEMVCHKILFPGRDYIDQWNKVIEQLGTPCPEFMKKLQPTVRTYVENRPKYAGYSFEKLFPDVLFPADSEHNKLKASQARDLLSKMLVIDASKRISVDEALQHPYINVWYDPSEAEAPPPKIPDKQLDEREHTIEEWKELIYKEVMDLEERTKNGVIRGQPSPLGAAVINGSQHPSSSSSVNDVSSMSTDPTLASDTDSSLEAAAGPLGCCR
B8: MAP2K7 p.R162C: MAP2K7 somatic mutant, observed in colorectal adenocarcinoma (protein, UniProt O14733 2-419, looked up, variant R162C)
Dual specificity …: AASSLEQKLSRLEAKLKQENREARRRIDLNLDISPQRPRPTLQLPLANDGGSRSPSSESSPQHPTPPARPRHMLGLPSTLFTPRSMESIEIDQKLQEIMKQTGYLTIGGQRYQAEINDLENLGEMGSGTCGQVWKMRFRKTGHVIAVKQMRRSGNKEENKCILMDLDVVLKSHDCPYIVQCFGTFITNTDVFIAMELMGTCAEKLKKRMQGPIPERILGKMTVAIVKALYYLKEKHGVIHRDVKPSNILLDERGQIKLCDFGISGRLVDSKAKTRSAGCAAYMAPERIDPPDPTKPDYDIRADVWSLGISLVELATGQFPYKNCKTDFEVLTKVLQEEPPLLPGHMGFSGDFQSFVKDCLTKDHRKRPKYNKLLEHSFIKRYETLEVDVASWFKDVMAKTESPRTSGVLSQPHLPFFR
B9: MAP2K7 p.R162H: MAP2K7 somatic mutant, observed in colorectal adenocarcinoma (protein, UniProt O14733 2-419, looked up, variant R162H)
Dual specificity …: AASSLEQKLSRLEAKLKQENREARRRIDLNLDISPQRPRPTLQLPLANDGGSRSPSSESSPQHPTPPARPRHMLGLPSTLFTPRSMESIEIDQKLQEIMKQTGYLTIGGQRYQAEINDLENLGEMGSGTCGQVWKMRFRKTGHVIAVKQMRRSGNKEENKHILMDLDVVLKSHDCPYIVQCFGTFITNTDVFIAMELMGTCAEKLKKRMQGPIPERILGKMTVAIVKALYYLKEKHGVIHRDVKPSNILLDERGQIKLCDFGISGRLVDSKAKTRSAGCAAYMAPERIDPPDPTKPDYDIRADVWSLGISLVELATGQFPYKNCKTDFEVLTKVLQEEPPLLPGHMGFSGDFQSFVKDCLTKDHRKRPKYNKLLEHSFIKRYETLEVDVASWFKDVMAKTESPRTSGVLSQPHLPFFR

How the values were obtained:
cJUN phosphorylation = test: JNK Kinase Assay (WT and mutant kinases immunoprecipitated from HMEL cells); format: biochemical, human; details: as reported by level of cJUN phosphorylation; for MAP2K4/7 first incubated with inactive JNK2
[1] = test system: HMEL-BRAF^V600E melanocytes; test: In vivo functional genetic screen and secondary validation: kinase-transduced HMEL cells implanted in nude mice; design: species or system human; details: for Tumorigenicity in vivo: WT or mutant kinase expressed individually
Excerpt: A ‘cancer-kinase’ library was constructed containing sequence-verified ORFs in a lentiviral vector for 110 of the 120 kinases reported to sustain somatic driver mutations in diverse human cancers. This library was pooled and introduced into a human HMEL-BRAF^V600E melanocyte model system engineered with BRAF^V600E and TERT as well as p53DD and CDK4-R24C to inactivate the […] pathways, respectively. The HMEL-BRAF^V600E melanocyte profile, while representing the most common clinically-definable genetic profile in human melanoma, is insufficient to drive efficient melanoma formation following orthotopic transplantation in the skin (penetrance of 10% and latency of 26 weeks). In contrast, 40% of HMEL-BRAF^V600E melanocytes transduced with the cancer kinase pools developed tumors with an average latency of 13 weeks (range 10-18 weeks).
In vivo functional genetic screens: Lentivirus were prepared by co-transfecting 293T cells with individual vector backbones and standard virus packaging systems for subsequent collection of viral supernatants. Viral supernatants were then pooled randomly to generate 8 pools of high-titer lentiviral stocks. HMEL cells were transduced with either GFP control lentivirus or each representative lentiviral pool in the presence of 8 ug/ml polybrene (Company). Infected cells were expanded, mixed 1:1 with Matrigel (BD Bioscience) and then subcutaneously implanted in female nude animals (Taconic) at 1×10^6 cells per site on both flanks. Primary INK4A/ARF−/−, PTEN−/− murine astrocytes were transduced with either GFP control lentivirus or each representative lentiviral pool in the presence of 8 ug/ml polybrene (Company). Infected cells were expanded implanted into the brain parenchyma of female SCID mice (Charles River). Briefly, SCID mice were anesthetized and placed into a stereotactic apparatus equipped with a Z axis (Stoelting). A small hole was bored in the skull 0.5 mm anterior and 3.0 mm lateral to the bregma using a dental drill. Twenty thousand cells in Hank's Buffered Salt Solution were injected into the right caudate nucleus 2 mm below the surface of the brain using a 10-ul Hamilton syringe with an unbeveled 30 gauge needle. The scalp was closed using a 9-mm Autoclip Applier. Animals were followed daily for the development of subQ tumors or signs of neurological deficits. Animals were sacrifice, tumors were harvested, genomic DNA was prepared and kinases expressed in each tumor identified using PCR sequencing using plasmid specific CMV and V5 primers. Expression of each kinase was further validated by western blot analysis. Kinases expressed in each tumor were then enlisted into secondary validation screens in which stable HMEL or mouse astrocyte lines were generated expressing each kinase individually. Cells were again expanded and then implanted in female nude or SCID animals. All mice were housed and treated in accordance with protocols approved by the institutional care and use committees for animal research at the Dana-Farber Cancer Institute.

Row | Molecule | Kinase Activity (cJUN phosphorylation) | Tumorigenicity in vivo [1] | also measured
1 | B1 | 1X |  | 
2 | B2 | 2.5X^ |  | 
3 | B3 | <1X |  | 
4 | B4 | 1X | YES | tumor penetrance ([1]; secondary validation, kinase transduced individually into HMEL-BRAF^V600E melanocytes): 30%
5 | B5 |  | YES | 
6 | B6 |  | YES | 
7 | B7 |  | YES | tumor generation individually in secondary HMEL screens ([1]; kinase transduced individually): did not generate tumors
8 | B8 | 1X |  | 
9 | B9 | 1X |  | 
